For one substance, percent pelleted with F-actin results are on record in PMC2712996.

The target of the assay is Rabbit skeletal muscle actin (F-actin) (rabbit) (UniProt P68135). The assay is described as follows: co-sedimentation.

Take “GST-Cno (aa 1,560–2,051) (domain or fragment)”: the percent pelleted with F-actin is 41%.
